Laboratory results reported in the Immune Epitope Database (IEDB).

What was measured:
Assay in all cases: IEDB peptide-MHC binding, cellular MHC/competitive/fluorescence; ≥ and ≤ were set here for values at or beyond the usual limits of such assays
HLA-A*02:06 = settings: source organism: Human papillomavirus 16
HLA-A*02:02 = settings: source organism: Human papillomavirus 16
HLA-A*02:04 = target: HLA-A*02:04
HLA-A*02:05 = settings: source organism: Human papillomavirus 16
HLA-A*02:03 = settings: source organism: Human papillomavirus 16
[1] = source organism: Human papillomavirus 16

Sequence | IC50 (HLA-A*02:06) [µM] | IC50 (HLA-A*02:02) [µM] | IC50 (HLA-A*02:04; [1]) [µM] | IC50 (HLA-A*02:05) [µM] | IC50 (HLA-A*02:03) [µM] | IC50 (HLA-A*02:04; source organism: Hepatitis B virus) [µM]
TLGIVCPI | 28 | 4 | 4 | ≥ 20 | 2 | 
YMLDLQPETT | ≥ 70 | 6 | 11 | ≥ 100 | 5 | 
FLPSDFFPSV |  |  |  |  |  | 1
